Measured values from US20160311863A1 (Affibody, published 2016).
Values belong to the binder of their own block, whether it stands above or below them. Starred links: 1 amine or outer side, 2 acyl side, 3 side chain; linkers in the order of their positions; H or OH if unused. Positions of bridges follow the written chain, without caps; N, C: chain ends. No end group written: not given here. mXylylene = c1cc(C[*:1])cc(C[*:2])c1; oXylylene = c1ccc(C[*:2])c(C[*:1])c1

What was measured:
human serum albumin [1] = molecular target: T1, human serum albumin (human, UniProt P02768 25-609); assay: SPR (ProteOn) screening, 50 nM over immobilized HSA
T1 construct: Immobilized on the sensor chip (2500 RU in screening; 1100-1600 RU in kinetics); also called HSA
Method: (§1) Biosensor binding analyses were performed on a ProteOn XPR36 instrument (Bio-Rad) at 25° C. using PBST (150 mM NaCl, 8 mM Na₂HPO₄, 2 mM NaH₂PO₄, 0.005% Tween20, pH 7.4) as running buffer at a flow rate of 50 μl min⁻¹. An injection of 30 μl of 20 mM HCl at a flow rate of 100 μl min⁻¹ was used for chip regeneration. In a screening experiment, the binding of all polypeptide variants to human serum albumin (HSA) was investigated. The proteins were diluted to 50 nM in running buffer and injected over a chip surface with 2500 RU of immobilized HSA. The association was studied for 300 s and the dissociation was followed for 7200 s (2 h). For data analysis, all samples were double referenced; the signal from a blank surface was first subtracted from the signal from the respective protein, and secondly the signal from an injection of PBST (running buffer) over the HSA surface was subtracted.

human serum albumin [2] = molecular target: T1, human serum albumin; assay: SPR (ProteOn XPR36), HSA immobilized, 1:1 Langmuir fit, triplicate
Method: as §1
The HSA binding kinetics of PEP18049_CL and the reference protein PEP07830 were further studied using a sensor chip with HSA immobilized on three different surfaces to between 1100 RU and 1600 RU. The proteins were diluted in running buffer (0.8, 1.6, 3.3, and 6.6 nM for PEP18049_CL and 1.0, 2.0, 4.0 and 8.0 nM for PEP07830) and injected over the three HSA surfaces and thus giving binding curves in triplicate. The association time was 300 s and the dissociation was followed for 36 000 s (10 h).
(§2) The kinetic parameters of the binding of PEP18049_CL and the reference protein PEP07830 to HSA were obtained from fitting the obtained sensorgrams to a 1:1 Langmuir binding model using the ProteOn Manager software version 3.1.0.6 (Bio-Rad). The average association rate constant (kₐ (M⁻¹ s⁻¹) and dissociation rate constant (kd (s⁻¹)) with standard deviation were calculated. From the average kₐ and the kd the dissociation equilibrium constant (KD (M)) was calculated (KD=kd/kₐ).

human serum albumin [3] = molecular target: T1, human serum albumin; assay: SPR (ProteOn XPR36), HSA immobilized, KD=kd/ka
Method: as §1, with “subtracted. […]” for “subtracted.”
as §2

human serum albumin [4] = molecular target: T1, human serum albumin; assay: SPR (ProteOn XPR36), polypeptide injected over immobilized HSA
Method: as §1

B1: PEP14789_CL_A (designed binder)
chain: GSSLAEAKEAANAELDSYGCSDFYKRLIDKAKTVEGVEALKDAILAACP
modifications: linker 20-48 via oXylylene
notes: Recombinantly produced in E. coli; same as PEP14788 but with an N-terminal GSS (expressed with an MGSS extension); The crosslink positions are printed as Cys17-Cys45, probably counted without the GSS; also called PEP14789 crosslinked with linker A (o-xylylene dibromide)
binding result (human serum albumin [1]): binds

B2: PEP14789_CL_B (designed binder)
chain: GSSLAEAKEAANAELDSYGCSDFYKRLIDKAKTVEGVEALKDAILAACP
modifications: linker 20-48 via mXylylene
notes: Recombinantly produced in E. coli; same as PEP14788 but with an N-terminal GSS (expressed with an MGSS extension); The crosslink positions are printed as Cys17-Cys45, probably counted without the GSS; also called PEP14789 crosslinked with linker B (m-xylylene dibromide)
binding result (human serum albumin [1]): binds

B3: PEP18049_CL (designed binder)
chain: LAEAKEAANAELDSYGCSDFYKRLIDKAKTVEGVEALKDAILAAKP
modifications: not fully specified; N-terminal leucine capped with acetic anhydride (acetylated); chloroacetylated Lys45 joined to the thiol of Cys17 by a thioether bond (intramolecular crosslink Cys17-Lys45); synthesised on Rink Amide resin
notes: also called crosslinked PEP18049
koff (human serum albumin [2]): 1.5e-05 s⁻¹
kon (human serum albumin [2]): 620000 M⁻¹ s⁻¹
Kd (human serum albumin [3]): 0.024 nM

B7: PEP07830 (designed binder)
chain: LAEAKEAANAELDSYGVSDFYKRLIDKAKTVEGVEALKDAILAALP-NH2
notes: Linear (non-crosslinked) control, made by solid phase peptide synthesis
koff (human serum albumin [2]): 4.1e-06 s⁻¹
kon (human serum albumin [2]): 190000 M⁻¹ s⁻¹
Kd (human serum albumin [3]): 0.021 nM

Now from value to binder:

binding result (human serum albumin [1]): binds
B4: PEP14788_CL_B (designed binder)
chain: LAEAKEAANAELDSYGCSDFYKRLIDKAKTVEGVEALKDAILAACP-NH2
modifications: linker 17-45 via mXylylene
notes: Chemically synthesised Cys-Cys crosslinked variant; also called PEP14788 crosslinked with linker B (m-xylylene dibromide)

binding result (human serum albumin [1]): binds
B5: PEP14788_CL_E (designed binder)
chain: LAEAKEAANAELDSYGCSDFYKRLIDKAKTVEGVEALKDAILAACP-NH2
modifications: linker 17-45 via 2,6‑bis(bromomethyl)pyridine
notes: Chemically synthesised Cys-Cys crosslinked variant; also called PEP14788 crosslinked with linker E (2,6-bis(bromomethyl)pyridine)

binding result (human serum albumin [4]): no binding (tested: 50 nM)
B6: PEP18052_CL (designed binder)
chain: LAEAKEAANAELDSYGCSDFYKRLIDKCKTVEGVEALKDAILAAKP
modifications: not fully specified; two thioether crosslinks between chloroacetylated lysines and cysteines: Lys5-Cys28 and Cys17-Lys45; synthesised on Rink Amide resin
notes: Control, double crosslinked variant; the expected mass was found in two HPLC peaks that behaved alike; also called crosslinked PEP18052

binding result (human serum albumin [4]): no binding (tested: 50 nM)
B8: PEP18050_CL (designed binder)
chain: LAEAKEAANAELDSYGVSDFYKRLIDKCKTVEGVEALKDAILAALP
modifications: not fully specified; chloroacetylated Lys5 joined to the thiol of Cys28 by a thioether bond (intramolecular crosslink Lys5-Cys28); synthesised on Rink Amide resin
notes: Control crosslinked variant; also called crosslinked PEP18050

binding result (human serum albumin [1]): binds
B9: PEP14788_CL_A (designed binder)
chain: LAEAKEAANAELDSYGCSDFYKRLIDKAKTVEGVEALKDAILAACP-NH2
modifications: linker 17-45 via oXylylene
notes: Chemically synthesised Cys-Cys crosslinked variant; also called PEP14788 crosslinked with linker A (o-xylylene dibromide)

binding result (human serum albumin [1]): binds
B10: PEP18051_CL (designed binder)
chain: CAEAKEAANAELDSYGVSDFYKRLIDKAKTVEGVEALKDAILAALP
modifications: not fully specified; chloroacetylated Lys29 joined to the thiol of Cys1 by a thioether bond (intramolecular crosslink Cys1-Lys29); synthesised on Rink Amide resin
notes: Control crosslinked variant; also called crosslinked PEP18051
